doi:10.1101/2025.01.06.631460 (bioRxiv, 2025)

Biological target: the molecule itself
Assay: single molecule photobleaching

B1: CNGC14-GFP (natural protein, Arabidopsis thaliana, UniProt Q9SJA4 1-726, looked up)
chain: MEFKRDNTVRFYGDEKQTIEVGEKRVPLFKSTTAPFMKQEVLPKKSKTRLKIPRFGRFKVFPENFEIERDKILDPGGDAVLQWNRVFLFWCLVALYVDPLFFFLSSVKRIGRSSCMTTDLKLGIVITFFRTLADLFYVLHIVIKFRTAYVSRTSRVFGRGELVKDPKLIARRYLRSDFIVDLIACLPLPQIVSWFILPSIRSSHSDHTTNALVLIVLVQYIPRLYLIFPLSAEIIKATGVVTTTAWAGAAYNLLQYMLASHILGSAWYLLSIERQATCWKAECHKESVPLQCVTDFFDCGTLHRDDRNNWQNTTVVFSNCDPSNNIQFTFGIFADALTKNVVSSPFLEKYLYCLWFGLQNLSSYGQNLSTSTSVLETMFAILVAIFGLVLFALLIGNMQTYLQSITVRLEEWRLKRRDTEEWMGHRLLPQNLRERVRRFVQYKWLATRGVDEETILHSLPADLRRDIQRHLCLDLVRRVPLFAQMDDQLLDAICERLASSLSTQGNYIVREGDPVTEMLFIIRGKLESSTTNGGRTGFFNSITLRPGDFCGEELLAWALLPKSTVNLPSSTRTVRALEEVEAFALQAGDLKFVANQFRRLHSKKLQHTFRYYSHQWRTWAACFVQVAWRRYKRKKLAKSLSLAESFSSYDEEEAVAVAATEEMSHEGEAQSGAKARHHTSNVKPHFAATILASRFAKNTRRTAHKLKDVEIPMLPKPDEPDFSVDD
- stoichiometry N: 4
